Numbering of substitutions follows the chain as printed.

Experiment [1] addresses T1, Pfu Cas3 HD L139A/HEL V418A (Pyrococcus furiosus, UniProt Q8U336 1-237, limits assumed).
T1 construct: tags as for m8
T1 sequence 1: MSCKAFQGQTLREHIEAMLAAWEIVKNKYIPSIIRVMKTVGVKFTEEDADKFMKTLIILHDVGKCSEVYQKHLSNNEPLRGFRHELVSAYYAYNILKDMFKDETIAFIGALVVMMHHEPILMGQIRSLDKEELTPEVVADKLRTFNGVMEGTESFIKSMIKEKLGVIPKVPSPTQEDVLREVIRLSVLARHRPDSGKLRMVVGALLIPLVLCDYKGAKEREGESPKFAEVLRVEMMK
T1 sequence 2: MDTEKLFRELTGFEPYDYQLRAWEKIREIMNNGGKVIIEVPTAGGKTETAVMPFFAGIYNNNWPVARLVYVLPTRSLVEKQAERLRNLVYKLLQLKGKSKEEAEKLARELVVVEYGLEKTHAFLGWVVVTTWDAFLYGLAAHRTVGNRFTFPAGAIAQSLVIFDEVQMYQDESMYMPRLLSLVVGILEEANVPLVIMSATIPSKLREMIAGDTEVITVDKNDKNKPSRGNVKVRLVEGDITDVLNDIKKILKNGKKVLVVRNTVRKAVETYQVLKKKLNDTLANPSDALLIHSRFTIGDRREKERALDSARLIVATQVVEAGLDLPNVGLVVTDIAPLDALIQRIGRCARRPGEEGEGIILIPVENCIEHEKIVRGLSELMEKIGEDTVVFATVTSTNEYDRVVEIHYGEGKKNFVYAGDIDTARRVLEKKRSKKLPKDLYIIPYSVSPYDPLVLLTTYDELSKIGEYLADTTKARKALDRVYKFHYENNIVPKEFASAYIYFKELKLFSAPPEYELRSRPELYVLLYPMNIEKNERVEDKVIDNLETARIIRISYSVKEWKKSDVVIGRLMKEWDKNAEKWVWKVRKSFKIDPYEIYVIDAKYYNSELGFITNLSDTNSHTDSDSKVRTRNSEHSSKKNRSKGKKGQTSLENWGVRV
The experiment can be described thus: Strep-tag pull-down, SDS-PAGE. The source says: (§1) Binding of Pfu Cas3 effectively eliminates the severe domain movements in Cas8a NTD, and rigidifies the rest of the inner belly subunits in place (FIG. 3A-B). The lockdown effect is achieved through an extensive Cas3-Cas8a interface that spans across the NTD and CTD of Cas8a, which prevents the hinge motion in between the two domains. […] To validate structural observations, we mutagenized three conserved interface residues on Cas3 individually and in combination, two from the HD nuclease (V187E, L139A) and one from the helicase subunit (V418A). In Strep-tag pull-down experiments, each mutation reduced the affinity between Cas3 and Cascade, albeit to various extents. In particular, Cas3 HD V187E and HD L139A/HEL V418A completely disrupted Cas3 interaction with Cascade (FIG. 19). Thus, in embodiments, any Cas3 sequence that is at least 85% similar to a Pfu Cas3 may retain the described wild type amino acids.
(§2) 15 μg of strep-tagged Pfu Cascade and 15 μg of untagged Pfu Cas3 complex were mixed and incubated with 10 μL of strep resin at 4° C. for 30 min in a binding buffer (50 mM HEPES pH7.5, 10% glycerol, 300 mM NaCl), in a total assay volume of 50 μL. […]

For another experiment, the target named is T2, Pfu Cas3 HD V187E (Pyrococcus furiosus, UniProt Q8U336 1-237, limits assumed).
T2 construct: The pull-down method speaks of an 'untagged Pfu Cas3 complex'; also called Cas3 V187E
T2 sequence 1: T1 sequence 1 with A139L, V187E
T2 sequence 2: T1 sequence 2 with A418V
The experiment can be described thus: Strep-tag pull-down, SDS-PAGE.
Excerpt: as §1, §2

B1: Pfu Cascade (other)
chain 1: not shown
chain 2: MDILLVCLRFPFFSVAKRSYQVRTSFLLPPPSALKGALAKGLILLKPEKYASSSLDEAALKAIKEIESKLVDIKAVSVAPLSPLIRNAFLLKRLRNLESGSNAEKSDAMRREYTFTRELLVAYIFKNLTQEEKNLYLKAAMLIDVIGDTESLATPVWASFVKPEDKKAPLAFSAPYTEIYSLLSSKIQAKGKIRMYIEKMRVSPEYSKTKGPQEEIFYLPIEERRYKRIVYYARTIYPPEVEKALTVDGEVLGIWIPKNSSESGSHHHHHHH
chain 3: MMYVRISGRIRLNAHSLNAQGGGGTNYIEITKTKVTVRTENGWTVVEVPAITGNMLKHWHFVGFVDYFKTTPYGVNLTERALRYNGTRFGQGETTATKANGATVQLNDEATIIKELADADVHGFLAPKTGRRRVSLVKASFILPTEDFIKEVEGERLITAIKHNRVDVDEKGAIGSSKEGTAQMLFSREYATGLYGFSIVLDLGLVGIPQGLPVKFEENQPRPNIVIDPNERKARIESALKALIPMLSGYIGANLARSFPVFKVEELVAIASEGPIPALVHGFYEDYIEANRSIIKNARALGFNIEVFTYNVDLGEDIEATKVSSVEELVANLVKMVGGKE
chain 4: MGGWIRNIGRYLSYLVDDTFEEYAYDVVDGIAKARTQEELLEGVYKALRLAPKLKKKAESKGCPPPRIPSPEDIEALEEKVEQLSNPKDLRKLAVSLALWAFASWNNCPKKGKGTEGGVE
notes: Ribonucleoprotein complex that also holds the chimeric crRNA (Pfu 5'-handle, E. coli 3'-handle); also called I-A Pfu Cascade; apo Pfu Cascade
As for B1, the binding result (in experiment [1]; in the experiment with Pfu Cas3 HD V187E) was “no binding” each time.
